For assay [1], the target named is T1, human CEACAM5 (carcinoembryonic antigen, CEA), cell surface (human, UniProt P06731 35-685).
T1 construct: whole, on cells; also called CD66e
T1 sequence (looked up): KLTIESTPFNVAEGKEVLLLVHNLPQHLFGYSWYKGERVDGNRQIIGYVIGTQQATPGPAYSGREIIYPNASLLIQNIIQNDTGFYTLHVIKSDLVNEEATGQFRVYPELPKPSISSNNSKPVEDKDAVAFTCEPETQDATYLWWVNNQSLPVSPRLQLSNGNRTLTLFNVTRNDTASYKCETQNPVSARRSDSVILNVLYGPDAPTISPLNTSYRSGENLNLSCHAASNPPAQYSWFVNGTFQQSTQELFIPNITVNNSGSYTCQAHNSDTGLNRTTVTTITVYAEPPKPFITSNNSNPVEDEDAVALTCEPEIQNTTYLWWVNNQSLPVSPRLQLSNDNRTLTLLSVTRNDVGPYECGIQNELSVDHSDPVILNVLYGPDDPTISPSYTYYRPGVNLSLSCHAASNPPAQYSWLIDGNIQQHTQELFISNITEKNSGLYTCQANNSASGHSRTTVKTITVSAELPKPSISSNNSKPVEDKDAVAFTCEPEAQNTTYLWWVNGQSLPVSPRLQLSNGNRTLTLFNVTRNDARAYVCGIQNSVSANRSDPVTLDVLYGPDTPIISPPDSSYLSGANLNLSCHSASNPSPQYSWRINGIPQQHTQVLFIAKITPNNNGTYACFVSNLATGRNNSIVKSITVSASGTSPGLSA
Put plainly: flow cytometry, MKN-45 and/or HPAF-II cells. (Flow cytometry measures light scatter and fluorescence of single cells or particles in a stream.)

The next assay concerns the target T2, human CD3ε (human, UniProt P07766 23-207).
T2 construct: whole, on cells; Present on cells as part of the CD3/TCR complex; also called CD3 epsilon
In words: flow cytometry, HUT-78 cells.

T2 sequence (P07766 23-207): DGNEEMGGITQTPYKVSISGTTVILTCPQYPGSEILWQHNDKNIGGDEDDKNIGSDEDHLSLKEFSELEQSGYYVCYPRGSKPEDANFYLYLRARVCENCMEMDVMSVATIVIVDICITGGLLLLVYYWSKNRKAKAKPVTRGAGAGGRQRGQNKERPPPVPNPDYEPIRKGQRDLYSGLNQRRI

B1: AB13L3-1/N (bispecific antibody, human IgG1, kappa, lambda, L234A L235A)
heavy: EVQLVESGGGLVQPGGSLKLSCAASGFTFNTYAMNWVRQAPGKGLEWVGRIRSKYNNYATYYADSVKDRFTISRDDSKNTAYLQMNSLKTEDTAVYYCVRHGNFGNSYVSWFAYWGQGTLVTVSSASTKGPSVFPLAPSSKSTSGGTAALGCLVKDYFPEPVTVSWNSGALTSGVHTFPAVLQSSGLYSLSSVVTVPSSSLGTQTYICNVNHKPSNTKVDKRVEPKSCDKTHTCPPCPAPEAAGGPSVFLFPPKPKDTLMISRTPEVTCVVVDVSHEDPEVKFNWYVDGVEVHNAKTKPREEQYNSTYRVVSVLTVLHQDWLNGKEYKCKVSNKALAAPIEKTISKAKGQPREPQVYTLPPSREEMTKNQVSLTCLVKGFYPSDIAVEWESNGQPENNYKTTPPVLDSDGSFFLYSKLTVDKSRWQQGNVFSCSVMHEALHNHYTQKSLSLSPG
light 1: EIVLTQSPATLSLSPGERATLSCRASQSVNSNLNWYQQKPGQAPRLLIYHGSNRATGIPARFSGSGSGTDFTLTISSLEPEDFAVYYCQQFDYFMNKNTFGQGTKVEIKRTVAAPSVFIFPPSDEQLKSGTASVVCLLNNFYPREAKVQWKVDNALQSGNSQESVTEQDSKDSTYSLSSTLTLSKADYEKHKVYACEVTHQGLSSPVTKSFNRGEC
light 2: QTVVTQEPSLTVSPGGTVTLTCRSSTGAVTTSNYANWFQQKPGQAPRGLIGGTNKRAPGTPARFSGSLLGGKAALTLSGAQPEDEAEYYCALWYKQRWVFGGGTKLTVLGQPKAAPSVTLFPPSSEELQANKATLVCLISDFYPGAVTVAWKADSSPVKAGVETTTPSKQSNNKYAASSYLSLTPEQWKSHRSYSCQVTHEGSTVEKTVAPTECS
notes: Kappa-lambda body, lead optimization wave 1
For B1, the “binding higher than TCB2014 (at 100 nM)” value in assay [1] is at least 40%. Besides, the binding result with human CD3ε is “binds”.

B2: AB15L3-1/N (bispecific antibody, human IgG1, kappa, lambda, L234A L235A)
heavy: EVQLVESGGGLVQPGGSLKLSCAASGFTFNTYAMNWVRQAPGKGLEWVGRIRSKYNNYATYYADSVKDRFTISRDDSKNTAYLQMNSLKTEDTAVYYCVRHGNFGNSYVSWFAYWGQGTLVTVSSASTKGPSVFPLAPSSKSTSGGTAALGCLVKDYFPEPVTVSWNSGALTSGVHTFPAVLQSSGLYSLSSVVTVPSSSLGTQTYICNVNHKPSNTKVDKRVEPKSCDKTHTCPPCPAPEAAGGPSVFLFPPKPKDTLMISRTPEVTCVVVDVSHEDPEVKFNWYVDGVEVHNAKTKPREEQYNSTYRVVSVLTVLHQDWLNGKEYKCKVSNKALAAPIEKTISKAKGQPREPQVYTLPPSREEMTKNQVSLTCLVKGFYPSDIAVEWESNGQPENNYKTTPPVLDSDGSFFLYSKLTVDKSRWQQGNVFSCSVMHEALHNHYTQKSLSLSPG
light 1: EIVLTQSPATLSLSPGERATLSCRASQTVNNNLNWYQQKPGQSPRLLIYYASNRATGIPARFSGSGSGTDFTLTISSLEPEDFAVYYCQQFNYHHEHNTFGQGTKVEIKRTVAAPSVFIFPPSDEQLKSGTASVVCLLNNFYPREAKVQWKVDNALQSGNSQESVTEQDSKDSTYSLSSTLTLSKADYEKHKVYACEVTHQGLSSPVTKSFNRGEC
light 2: QTVVTQEPSLTVSPGGTVTLTCRSSTGAVTTSNYANWFQQKPGQAPRGLIGGTNKRAPGTPARFSGSLLGGKAALTLSGAQPEDEAEYYCALWYKQRWVFGGGTKLTVLGQPKAAPSVTLFPPSSEELQANKATLVCLISDFYPGAVTVAWKADSSPVKAGVETTTPSKQSNNKYAASSYLSLTPEQWKSHRSYSCQVTHEGSTVEKTVAPTECS
notes: as for B1
As for B2, the “binding higher than TCB2014 (at 100 nM)” value in assay [1] is at least 40%. Further, the binding result in the assay with human CD3ε is on record as “binds”.

B3: AB20L3-1/N (bispecific antibody, human IgG1, kappa, lambda, L234A L235A)
heavy: EVQLVESGGGLVQPGGSLKLSCAASGFTFNTYAMNWVRQAPGKGLEWVGRIRSKYNNYATYYADSVKDRFTISRDDSKNTAYLQMNSLKTEDTAVYYCVRHGNFGNSYVSWFAYWGQGTLVTVSSASTKGPSVFPLAPSSKSTSGGTAALGCLVKDYFPEPVTVSWNSGALTSGVHTFPAVLQSSGLYSLSSVVTVPSSSLGTQTYICNVNHKPSNTKVDKRVEPKSCDKTHTCPPCPAPEAAGGPSVFLFPPKPKDTLMISRTPEVTCVVVDVSHEDPEVKFNWYVDGVEVHNAKTKPREEQYNSTYRVVSVLTVLHQDWLNGKEYKCKVSNKALAAPIEKTISKAKGQPREPQVYTLPPSREEMTKNQVSLTCLVKGFYPSDIAVEWESNGQPENNYKTTPPVLDSDGSFFLYSKLTVDKSRWQQGNVFSCSVMHEALHNHYTQKSLSLSPG
light 1: EIVLTQSPATLSLSPGERATLSCRASQSVNSNLNWYQQKPGQAPRLLIYHGSNRATGIPARFSGSGSGTDFTLTISSLEPEDFAVYYCQQFDYFRELNTFGQGTKVEIKRTVAAPSVFIFPPSDEQLKSGTASVVCLLNNFYPREAKVQWKVDNALQSGNSQESVTEQDSKDSTYSLSSTLTLSKADYEKHKVYACEVTHQGLSSPVTKSFNRGEC
light 2: QTVVTQEPSLTVSPGGTVTLTCRSSTGAVTTSNYANWFQQKPGQAPRGLIGGTNKRAPGTPARFSGSLLGGKAALTLSGAQPEDEAEYYCALWYKQRWVFGGGTKLTVLGQPKAAPSVTLFPPSSEELQANKATLVCLISDFYPGAVTVAWKADSSPVKAGVETTTPSKQSNNKYAASSYLSLTPEQWKSHRSYSCQVTHEGSTVEKTVAPTECS
notes: as for B1
Turning to B3, in assay [1], the “binding higher than TCB2014 (at 100 nM)” value was at least 40%. The binding result with human CD3ε is given as “binds”.

B4: AB14L3-1/N (bispecific antibody, human IgG1, kappa, lambda, L234A L235A)
heavy: EVQLVESGGGLVQPGGSLKLSCAASGFTFNTYAMNWVRQAPGKGLEWVGRIRSKYNNYATYYADSVKDRFTISRDDSKNTAYLQMNSLKTEDTAVYYCVRHGNFGNSYVSWFAYWGQGTLVTVSSASTKGPSVFPLAPSSKSTSGGTAALGCLVKDYFPEPVTVSWNSGALTSGVHTFPAVLQSSGLYSLSSVVTVPSSSLGTQTYICNVNHKPSNTKVDKRVEPKSCDKTHTCPPCPAPEAAGGPSVFLFPPKPKDTLMISRTPEVTCVVVDVSHEDPEVKFNWYVDGVEVHNAKTKPREEQYNSTYRVVSVLTVLHQDWLNGKEYKCKVSNKALAAPIEKTISKAKGQPREPQVYTLPPSREEMTKNQVSLTCLVKGFYPSDIAVEWESNGQPENNYKTTPPVLDSDGSFFLYSKLTVDKSRWQQGNVFSCSVMHEALHNHYTQKSLSLSPG
light 1: EIVLTQSPATLSLSPGERATLSCRASQSVNSNLNWYQQKPGQAPRLLIYHGSNRATGIPARFSGSGSGTDFTLTISSLEPEDFAVYYCQQFDYFRESNTFGQGTKVEIKRTVAAPSVFIFPPSDEQLKSGTASVVCLLNNFYPREAKVQWKVDNALQSGNSQESVTEQDSKDSTYSLSSTLTLSKADYEKHKVYACEVTHQGLSSPVTKSFNRGEC
light 2: QTVVTQEPSLTVSPGGTVTLTCRSSTGAVTTSNYANWFQQKPGQAPRGLIGGTNKRAPGTPARFSGSLLGGKAALTLSGAQPEDEAEYYCALWYKQRWVFGGGTKLTVLGQPKAAPSVTLFPPSSEELQANKATLVCLISDFYPGAVTVAWKADSSPVKAGVETTTPSKQSNNKYAASSYLSLTPEQWKSHRSYSCQVTHEGSTVEKTVAPTECS
notes: as for B1
As to B4, the “binding higher than TCB2014 (at 100 nM)” value in assay [1] was at least 40%. Besides, in the assay with human CD3ε, the binding result is “binds”.
